For orientation: Kd means the concentration at which binding is half-saturated. Lower therefore signals tighter binding. The term IC50 denotes the concentration at which inhibition is half-maximal. High values mean a need for much substance, low ones inhibition by little substance.

Bridge positions count the residues as written; N and C are the ends. Square brackets hold non-standard residues; d marks the D form. Ends that are not written are not given here. Phe(4-amidino) = N=C(N)c1ccc(C[C@H](N)C(=O)O)cc1; Phe(4-NH2) = Nc1ccc(C[C@H](N)C(=O)O)cc1; His(Me) = mono-methylated histidine; NMeL = CN[C@@H](CC(C)C)C(=O)O; Pen = CC(C)(S)[C@H](N)C(=O)O; hCys = N[C@@H](CCS)C(=O)O; Sar = CNCC(=O)O Some results are limits rather than exact numbers.

B1: Peptide No. 257 (peptide)
peptide: RF[Pen]TG[Phe(4-amidino)]FG[Sar][NMeL]YPC-NH2
modifications: disulfide 3-13; N-terminus assumed
SMILES: CC(C)C[C@H]1C(=O)N[C@@H](Cc2ccc(O)cc2)C(=O)N2CCC[C@H]2C(=O)N[C@H](C(N)=O)CSSC(C)(C)[C@H](NC(=O)[C@H](Cc2ccccc2)NC(=O)[C@@H](N)CCCNC(=N)N)C(=O)N[C@@H]([C@@H](C)O)C(=O)NCC(=O)N[C@@H](Cc2ccc(C(=N)N)cc2)C(=O)N[C@@H](Cc2ccccc2)C(=O)NCC(=O)N(C)CC(=O)N1C
B2: Peptide No. 255 (peptide)
peptide: RF[Pen]TGKFG[Sar][NMeL]YPC-NH2
modifications: disulfide 3-13; N-terminus assumed
SMILES: CC(C)C[C@H]1C(=O)N[C@@H](Cc2ccc(O)cc2)C(=O)N2CCC[C@H]2C(=O)N[C@H](C(N)=O)CSSC(C)(C)[C@H](NC(=O)[C@H](Cc2ccccc2)NC(=O)[C@@H](N)CCCNC(=N)N)C(=O)N[C@@H]([C@@H](C)O)C(=O)NCC(=O)N[C@@H](CCCCN)C(=O)N[C@@H](Cc2ccccc2)C(=O)NCC(=O)N(C)CC(=O)N1C
B3: Peptide No. 256 (peptide)
peptide: RF[Pen]TGRFG[Sar][NMeL]YPC-NH2
modifications: disulfide 3-13; N-terminus assumed
SMILES: CC(C)C[C@H]1C(=O)N[C@@H](Cc2ccc(O)cc2)C(=O)N2CCC[C@H]2C(=O)N[C@H](C(N)=O)CSSC(C)(C)[C@H](NC(=O)[C@H](Cc2ccccc2)NC(=O)[C@@H](N)CCCNC(=N)N)C(=O)N[C@@H]([C@@H](C)O)C(=O)NCC(=O)N[C@@H](CCCNC(=N)N)C(=O)N[C@@H](Cc2ccccc2)C(=O)NCC(=O)N(C)CC(=O)N1C
B4: Peptide No. 259 (peptide)
peptide: RF[Pen]TG[His(Me)]FGGLYPC-NH2
modifications: disulfide 3-13
B5: Peptide No. 260 (peptide)
peptide: RF[Pen]TG[His(Me)2]FGGLYPC-NH2
modifications: disulfide 3-13
B6: Peptide No. 34 (peptide)
peptide: QRF[Pen]TGHFGGLYP[Pen]NGP-NH2
modifications: disulfide 4-14; N-terminus assumed
SMILES: CC(C)C[C@@H]1NC(=O)CNC(=O)CNC(=O)[C@H](Cc2ccccc2)NC(=O)[C@H](Cc2c[nH]cn2)NC(=O)CNC(=O)[C@H]([C@@H](C)O)NC(=O)[C@@H](NC(=O)[C@H](Cc2ccccc2)NC(=O)[C@H](CCCNC(=N)N)NC(=O)[C@@H](N)CCC(N)=O)C(C)(C)SSC(C)(C)[C@@H](C(=O)N[C@@H](CC(N)=O)C(=O)NCC(=O)N2CCC[C@H]2C(N)=O)NC(=O)[C@@H]2CCCN2C(=O)[C@H](Cc2ccc(O)cc2)NC1=O
B7: Peptide No. 27 (peptide)
peptide: QRFCTGHFGGLYP[hCys]NGP-NH2
modifications: disulfide 4-14; N-terminus assumed
SMILES: CC(C)C[C@@H]1NC(=O)CNC(=O)CNC(=O)[C@H](Cc2ccccc2)NC(=O)[C@H](Cc2c[nH]cn2)NC(=O)CNC(=O)[C@H]([C@@H](C)O)NC(=O)[C@@H](NC(=O)[C@H](Cc2ccccc2)NC(=O)[C@H](CCCNC(=N)N)NC(=O)[C@@H](N)CCC(N)=O)CSSCC[C@@H](C(=O)N[C@@H](CC(N)=O)C(=O)NCC(=O)N2CCC[C@H]2C(N)=O)NC(=O)[C@@H]2CCCN2C(=O)[C@H](Cc2ccc(O)cc2)NC1=O
B8: Peptide No. 28 (peptide)
peptide: QRF[hCys]TGHFGGLYP[hCys]NGP-NH2
modifications: disulfide 4-14; N-terminus assumed
SMILES: CC(C)C[C@@H]1NC(=O)CNC(=O)CNC(=O)[C@H](Cc2ccccc2)NC(=O)[C@H](Cc2c[nH]cn2)NC(=O)CNC(=O)[C@H]([C@@H](C)O)NC(=O)[C@@H](NC(=O)[C@H](Cc2ccccc2)NC(=O)[C@H](CCCNC(=N)N)NC(=O)[C@@H](N)CCC(N)=O)CCSSCC[C@@H](C(=O)N[C@@H](CC(N)=O)C(=O)NCC(=O)N2CCC[C@H]2C(N)=O)NC(=O)[C@@H]2CCCN2C(=O)[C@H](Cc2ccc(O)cc2)NC1=O
B9: Peptide No. 258 (peptide)
peptide: RF[Pen]TG[Phe(4-NH2)]FG[Sar][NMeL]YPC-NH2
modifications: disulfide 3-13; N-terminus assumed
SMILES: CC(C)C[C@H]1C(=O)N[C@@H](Cc2ccc(O)cc2)C(=O)N2CCC[C@H]2C(=O)N[C@H](C(N)=O)CSSC(C)(C)[C@H](NC(=O)[C@H](Cc2ccccc2)NC(=O)[C@@H](N)CCCNC(=N)N)C(=O)N[C@@H]([C@@H](C)O)C(=O)NCC(=O)N[C@@H](Cc2ccc(N)cc2)C(=O)N[C@@H](Cc2ccccc2)C(=O)NCC(=O)N(C)CC(=O)N1C
B10: Peptide No. 240 (peptide)
peptide: RF[Pen]TGHF[dT][Sar][NMeL]YPC-NH2
modifications: disulfide 3-13; N-terminus assumed
SMILES: CC(C)C[C@H]1C(=O)N[C@@H](Cc2ccc(O)cc2)C(=O)N2CCC[C@H]2C(=O)N[C@H](C(N)=O)CSSC(C)(C)[C@H](NC(=O)[C@H](Cc2ccccc2)NC(=O)[C@@H](N)CCCNC(=N)N)C(=O)N[C@@H]([C@@H](C)O)C(=O)NCC(=O)N[C@@H](Cc2c[nH]cn2)C(=O)N[C@@H](Cc2ccccc2)C(=O)N[C@H]([C@H](C)O)C(=O)N(C)CC(=O)N1C
B11: Peptide No. 241 (peptide)
peptide: RF[Pen]TGHF[dS][Sar][NMeL]YPC-NH2
modifications: disulfide 3-13; N-terminus assumed
SMILES: CC(C)C[C@H]1C(=O)N[C@@H](Cc2ccc(O)cc2)C(=O)N2CCC[C@H]2C(=O)N[C@H](C(N)=O)CSSC(C)(C)[C@H](NC(=O)[C@H](Cc2ccccc2)NC(=O)[C@@H](N)CCCNC(=N)N)C(=O)N[C@@H]([C@@H](C)O)C(=O)NCC(=O)N[C@@H](Cc2c[nH]cn2)C(=O)N[C@@H](Cc2ccccc2)C(=O)N[C@H](CO)C(=O)N(C)CC(=O)N1C
B12: Peptide No. 243 (peptide)
peptide: RF[Pen]TGHF[dN][Sar][NMeL]YPC-NH2
modifications: disulfide 3-13; N-terminus assumed
SMILES: CC(C)C[C@H]1C(=O)N[C@@H](Cc2ccc(O)cc2)C(=O)N2CCC[C@H]2C(=O)N[C@H](C(N)=O)CSSC(C)(C)[C@H](NC(=O)[C@H](Cc2ccccc2)NC(=O)[C@@H](N)CCCNC(=N)N)C(=O)N[C@@H]([C@@H](C)O)C(=O)NCC(=O)N[C@@H](Cc2c[nH]cn2)C(=O)N[C@@H](Cc2ccccc2)C(=O)N[C@H](CC(N)=O)C(=O)N(C)CC(=O)N1C
B13: Peptide No. 219 (peptide)
peptide: RF[Pen]TGHF[dL][Sar][NMeL]YPC-NH2
modifications: disulfide 3-13; N-terminus assumed
SMILES: CC(C)C[C@H]1NC(=O)[C@H](Cc2ccccc2)NC(=O)[C@H](Cc2c[nH]cn2)NC(=O)CNC(=O)[C@H]([C@@H](C)O)NC(=O)[C@@H](NC(=O)[C@H](Cc2ccccc2)NC(=O)[C@@H](N)CCCNC(=N)N)C(C)(C)SSC[C@@H](C(N)=O)NC(=O)[C@@H]2CCCN2C(=O)[C@H](Cc2ccc(O)cc2)NC(=O)[C@H](CC(C)C)N(C)C(=O)CN(C)C1=O
B14: Peptide No. 244 (peptide)
peptide: RF[Pen]TGHF[dE][Sar][NMeL]YPC-NH2
modifications: disulfide 3-13; N-terminus assumed
SMILES: CC(C)C[C@H]1C(=O)N[C@@H](Cc2ccc(O)cc2)C(=O)N2CCC[C@H]2C(=O)N[C@H](C(N)=O)CSSC(C)(C)[C@H](NC(=O)[C@H](Cc2ccccc2)NC(=O)[C@@H](N)CCCNC(=N)N)C(=O)N[C@@H]([C@@H](C)O)C(=O)NCC(=O)N[C@@H](Cc2c[nH]cn2)C(=O)N[C@@H](Cc2ccccc2)C(=O)N[C@H](CCC(=O)O)C(=O)N(C)CC(=O)N1C
B15: Peptide No. 218 (peptide)
peptide: RF[Pen]TGHF[dV][Sar][NMeL]YPC-NH2
modifications: disulfide 3-13; N-terminus assumed
SMILES: CC(C)C[C@H]1C(=O)N[C@@H](Cc2ccc(O)cc2)C(=O)N2CCC[C@H]2C(=O)N[C@H](C(N)=O)CSSC(C)(C)[C@H](NC(=O)[C@H](Cc2ccccc2)NC(=O)[C@@H](N)CCCNC(=N)N)C(=O)N[C@@H]([C@@H](C)O)C(=O)NCC(=O)N[C@@H](Cc2c[nH]cn2)C(=O)N[C@@H](Cc2ccccc2)C(=O)N[C@H](C(C)C)C(=O)N(C)CC(=O)N1C

The target of the first experiment is T1, soluble human FcRn (shFcRn) (human, UniProt P55899 24-297; P61769 21-119).
T1 construct: Biotinylated for the ELISA, amine-coupled to a CM5 chip for SPR; also called biotinylated shFcRn
T1 sequence (P55899 24-297 limits assumed, chain 1 of 2): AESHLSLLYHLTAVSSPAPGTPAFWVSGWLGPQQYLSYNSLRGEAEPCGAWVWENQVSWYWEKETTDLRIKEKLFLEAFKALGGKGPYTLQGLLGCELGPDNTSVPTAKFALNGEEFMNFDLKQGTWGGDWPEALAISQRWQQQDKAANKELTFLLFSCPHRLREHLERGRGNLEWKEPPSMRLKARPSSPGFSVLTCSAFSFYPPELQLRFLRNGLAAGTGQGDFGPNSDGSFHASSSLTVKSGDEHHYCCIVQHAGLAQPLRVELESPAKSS
T1 sequence (P61769 21-119 limits assumed, chain 2 of 2): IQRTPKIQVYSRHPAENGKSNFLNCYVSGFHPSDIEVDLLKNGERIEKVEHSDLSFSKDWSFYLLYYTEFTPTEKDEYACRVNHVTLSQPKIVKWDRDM
Put plainly: SPR pH 6.
Experimental: (§1) The following steps were performed to cross-link soluble human or cynomolgus FcRn to the dextran surface of a CM5 sensor chip (Biacore AB, Uppsala, Sweden) by an amine coupling reaction involving 1-ethyl-(3-dimethylaminopropyl)-carbodiimide hydrochloride (EDC) (Biacore AB, Uppsala, Sweden) and N-hydroxysuccinimide (NHS) (Biacore AB, Uppsala, Sweden) as recommended by Biacore (BIAapplications Handbook, version AB, section 4.2, Biacore AB, Uppsala, Sweden). […] Residual sites on the FcRn flow cell were blocked with 1 M ethanolamine hydrochloride pH 8.5 (Biacore AB, Uppsala, Sweden). A control flow cell was blocked with ethanolamine for reference subtraction. For analysis of the monomeric peptides, FcRn was coated to a final density of 4000-5000 response units (RU). For analysis of the peptide dimers, FcRn was coated to a density of 2000-2500 RU. All SPR measurements were performed using a BIACORE 3000 Instrument (Biacore AB Uppsala, Sweden). For measurements done at either pH 6 or pH 7.4, experiments were performed in 50 mM phosphate, 100 mM sodium chloride, 0.01% surfactant P20 (Biacore AB, Uppsala, Sweden).
(§2) Ten, 2-fold dilutions of the peptide were injected over the FcRn-CM5 chip at a rate of 20 μl/min for 2 min. The peptide was dissociated from the chip for 2.5 minutes with buffer. Any remaining peptide was removed from the chip with a 30 second injection of HBS-P buffer (Biacore AB, Uppsala, Sweden) at a rate of 30 μl/min. Sensorgrams were generated and analyzed using BiaEval software version 3.1 (Biacore AB, Uppsala, Sweden). The equilibrium RU observed for each injection was plotted against concentration. The equilibrium KD values were derived by analysis of the plots using the steady state affinity model included in the BiaEval software.
For B1, the affinity, expressed as Kd, was 74 nM.
Same read-out and setting: as for B2, the figure is 1300 nM.
B3 returned a Kd of 500 nM.
The same measure, in the same setting: as for B4, the figure is 140 nM.
Regarding B5, the Kd is 190 nM.

The target of another experiment is T1, soluble human FcRn (shFcRn). Nature of the experiment: IgG competition ELISA.
Experimental: (§3) The wells were coated with 100 μl/well of 1 μg/ml biotinylated-shFcRn in Buffer A. The plate was sealed and incubated at 37° C. for 2 hours. Afterwards, the plate was washed with 200 μl/well of Buffer B (Buffer B: 100 mM MES pH 6, 150 mM NaCl, 0.5% BSA IgG-free (Jackson ImmunoResearch, West Grove, Pa.), 0.05% Tween-20). […] To allow for mixing, the plate was rocked for 2 minutes, sealed and incubated at 37° C. for 2 hours. […] The plate was covered, incubated for 30 minutes at room temperature and washed 4 times with 200 μl/well of ice-cold buffer B. SureBlue TMB substrate solution (100 μl/well, KPL, Gaithersburg, Md.) was added and the plate was allowed to incubate at room temperature until color developed, which took 5 to 10 minutes. Once color developed, 100 μl/well of TMB stop solution (KPL, Gaithersburg, Md.) was added and the absorbance was measured at 450 nm. The data was plotted as absorbance vs. peptide concentration to derive the inhibitory concentration 50% (IC₅₀) values.
Turning to B6, the IC50 is 2000 nM.
Same read-out and setting: with B7 the figure was 21000 nM; with B8, 20000 nM.

A further experiment has the same target. Nature of the experiment: SPR pH 7.4.
Experimental: as §1, §2
In turn, B9 yielded a Kd of 1100 nM.
On the same count and under the same terms, with B1 the figure was 73 nM; with B2, 1100 nM; with B3, 500 nM.
Same read-out and setting: as for B4, the figure is 380 nM; as for B5, 460 nM.

The target is the same in a further experiment. Nature of the experiment: SPR pH 6. This is another data set of the same source.
Experimental: as §1, §2
B10 yielded a Kd of 4800 nM.
The same measure, in the same setting: with B11 the figure was 1100 nM; with B12, 2100 nM.
Still for that read-out and setting: with B13 the figure was 470 nM; with B14, 580 nM.

For the next experiment the target is unchanged. Nature of the experiment: IgG competition ELISA. This is another data set of the same source.
Experimental: as §3
Regarding B15, the IC50 was greater than 50000 nM.
Consider B10, for which the IC50 was determined as 71000 nM.
Consider B11, for which the IC50 was found to be 23000 nM.
B12 displayed an IC50 of 29000 nM. This IC50 and that of the molecule before are within 1.5-fold of each other.
On the same count and under the same terms, with B13 the figure was 4000 nM.
Same read-out and setting: as for B14, the figure is 6400 nM.

The next experiment shares this target. Put plainly: IgG competition ELISA. The source holds these as a separate data set. A general note: ELISA stands for enzyme-linked immunosorbent assay.
Experimental: as §3
In the case of B9, the IC50 came to 4600 nM.
On the same count and under the same terms, as for B2, the figure is 40000 nM; as for B3, 5500 nM; as for B4, 2900 nM.
The same measure, in the same setting: as for B5, the figure is 4400 nM.

Another experiment shares this target. Put plainly: SPR pH 6. The source holds these as a separate data set.
Experimental: as §1, §2
In turn, B6 gave a Kd of 370 nM.
On the same count and under the same terms, as for B7, the figure is 3900 nM.
On to B8, for which the Kd is 3800 nM.
